Reference: article PMC9209526 (Nature Communications, 2022)

Columns and labels:
[1] = molecular target: T1, N4posAbl (Abl kinase domain with N-terminal KRKKSGG tag) (Homo sapiens, UniProt P00519); experiment: ClyA-AS nanopore tweezers single-channel current recording: ligand binding to N4posAbl
T1 sequence (P00519 229-512): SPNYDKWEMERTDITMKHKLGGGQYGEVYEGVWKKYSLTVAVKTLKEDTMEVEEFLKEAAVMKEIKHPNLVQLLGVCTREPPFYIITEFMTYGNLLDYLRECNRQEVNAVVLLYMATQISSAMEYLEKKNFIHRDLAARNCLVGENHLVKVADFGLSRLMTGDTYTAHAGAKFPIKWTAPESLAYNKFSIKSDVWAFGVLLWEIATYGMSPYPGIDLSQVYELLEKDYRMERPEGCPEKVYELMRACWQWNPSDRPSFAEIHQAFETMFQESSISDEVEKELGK

[2] = molecular target: T2, N4posG321V (Abl kinase domain hinge mutant) (Homo sapiens, UniProt P00519, G321V); experiment: ClyA-AS nanopore tweezers single-channel current recording: ligand binding to N4posG321V
T2 construct: His10-TEV (N, cleaved yes); made in house; host or cells: E. coli BL21(DE3)pLysS, co-expressed with YopH phosphatase
T2 sequence (P00519 229-512 G321V): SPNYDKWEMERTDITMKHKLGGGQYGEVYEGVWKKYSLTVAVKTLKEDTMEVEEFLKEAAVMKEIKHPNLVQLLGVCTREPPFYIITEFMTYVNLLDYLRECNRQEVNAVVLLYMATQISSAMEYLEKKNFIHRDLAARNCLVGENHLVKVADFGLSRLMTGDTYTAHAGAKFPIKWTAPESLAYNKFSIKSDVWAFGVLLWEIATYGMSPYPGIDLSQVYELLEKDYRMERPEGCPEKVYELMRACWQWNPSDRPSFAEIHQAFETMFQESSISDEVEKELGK

[3] = molecular target: Abl kinase; conditions: read-out: reported KD of ATP; cited from earlier work
[4] = system: kinase substrate peptide Abltide; experiment: Enzyme-coupled Abl kinase assay (NADH consumption), Michaelis-Menten kinetics; type: biochemical; conditions: for Vmax / kcat: Abltide 50~800 µM, […] ATP, 30 nM kinase, 30 °C; for catalytic activity: Michaelis-Menten kinetic analysis
Description: (§1) Absorbance at 340 nm was monitored with a microtiter plate spectrophotometer (BioTek Synergy 2) for 30 min. The background kinase activity was determined in the reaction mix without the substrate peptide and subtracted from the experiments with the substrate peptide. To obtain the enzyme kinetics, initial phosphorylation rates at different substrate peptide concentrations (50~800 µM) were measured. Plots of the initial rate as a function of peptide substrate concentration were fit by nonlinear regression to obtain the Michaelis-Menten kinetic parameters.

[5] = molecular target: T3, kinase substrate peptide Abltide (Homo sapiens, UniProt P00519); experiment: as above; type: biochemical
T3 sequence (P00519 229-512): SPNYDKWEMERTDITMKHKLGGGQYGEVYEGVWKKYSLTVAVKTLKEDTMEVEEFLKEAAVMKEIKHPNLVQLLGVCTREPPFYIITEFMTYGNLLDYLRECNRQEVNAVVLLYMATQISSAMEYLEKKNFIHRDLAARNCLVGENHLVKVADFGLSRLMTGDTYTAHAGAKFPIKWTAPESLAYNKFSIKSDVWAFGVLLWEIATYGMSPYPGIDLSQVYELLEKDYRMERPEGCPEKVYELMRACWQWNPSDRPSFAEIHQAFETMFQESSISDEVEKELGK
Description: as §1

[6] = Conformational state analysis of apo Abl kinases in ClyA-AS nanopore (S1/S2 and S1 sub-state dwell times, populations, rate constants, free energy); set-up: species or system human
[7] = molecular target: T4, N4posAbl: wildtype Abl kinase domain (residues 229-512) with a positively charged peptide tail (N4pos tag, … (human, UniProt P00519 229-512)); experiment: ClyA nanopore tweezers (single-channel current recording); single Abl kinase molecule trapped in a ClyA-AS nanopore in a DPhPC bilayer; Abltide titrated with 10 mM MgCl2; occupancy of the bound state against concentration fitted with a single site binding model; -80 mV, 150 mM NaCl, 100 mM Tris-HCl, pH 7.5, 22 °C, ~100 nM kinase in cis; conditions: both partners purified
T4 sequence (looked up): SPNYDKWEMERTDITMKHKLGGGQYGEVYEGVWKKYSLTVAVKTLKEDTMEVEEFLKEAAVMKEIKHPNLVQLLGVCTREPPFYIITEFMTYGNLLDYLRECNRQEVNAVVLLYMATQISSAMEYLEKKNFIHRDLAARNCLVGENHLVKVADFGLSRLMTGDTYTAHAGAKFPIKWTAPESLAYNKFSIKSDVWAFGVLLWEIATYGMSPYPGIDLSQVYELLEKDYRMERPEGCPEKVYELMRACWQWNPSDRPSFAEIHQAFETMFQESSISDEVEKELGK

[8] = molecular target: T5, N4posG321V: Abl kinase domain (residues 229-512) hinge mutant G321V with the N4pos tag (KRKKSGG) at its … (human, UniProt P00519 229-512, G321V); experiment: as above; conditions: both partners purified
T5 construct: also called Abl G321V
T5 sequence (looked up): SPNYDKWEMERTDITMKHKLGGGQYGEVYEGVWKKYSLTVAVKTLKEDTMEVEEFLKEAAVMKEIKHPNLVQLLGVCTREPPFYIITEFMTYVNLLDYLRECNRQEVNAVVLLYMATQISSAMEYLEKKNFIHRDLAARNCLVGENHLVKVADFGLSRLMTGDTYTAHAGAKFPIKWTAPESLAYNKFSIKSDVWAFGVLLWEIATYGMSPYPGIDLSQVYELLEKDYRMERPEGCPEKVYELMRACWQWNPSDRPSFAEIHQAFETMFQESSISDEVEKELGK

Question: Which “effect on N4posAbl current signal / conformational states” value [1] does the source give for [Cl-].[Cl-].[Mg+2] [MgCl2] here?
Answer: did not trigger any noticeable change

Question: What does the source list for ATP?
Answer: effect on N4posG321V current trace [2]: did not trigger any change in the current trace; Kd [3]: 69 ± 4 µM

B1: Abl: wildtype Abl kinase domain (residue 229-512) (protein)
chain: SPNYDKWEMERTDITMKHKLGGGQYGEVYEGVWKKYSLTVAVKTLKEDTMEVEEFLKEAAVMKEIKHPNLVQLLGVCTREPPFYIITEFMTYGNLLDYLRECNRQEVNAVVLLYMATQISSAMEYLEKKNFIHRDLAARNCLVGENHLVKVADFGLSRLMTGDTYTAHAGAKFPIKWTAPESLAYNKFSIKSDVWAFGVLLWEIATYGMSPYPGIDLSQVYELLEKDYRMERPEGCPEKVYELMRACWQWNPSDRPSFAEIHQAFETMFQESSISDEVEKELGK
Question: Which Vmax [4] does the source give for B1 here?
Answer: 12.8 ± 1.3 µM/min

Question: What about the kcat [4] of the same molecule?
Answer: 7.112 ± 0.717 s⁻¹

Question: And the kcat [5]?
Answer: 7.1 ± 0.7 s⁻¹

B2: N4posG321V: N4posAbl hinge mutant G321V intended to enhance rigidity; catalytically inactive (protein)
chain: SPNYDKWEMERTDITMKHKLGGGQYGEVYEGVWKKYSLTVAVKTLKEDTMEVEEFLKEAAVMKEIKHPNLVQLLGVCTREPPFYIITEFMTYVNLLDYLRECNRQEVNAVVLLYMATQISSAMEYLEKKNFIHRDLAARNCLVGENHLVKVADFGLSRLMTGDTYTAHAGAKFPIKWTAPESLAYNKFSIKSDVWAFGVLLWEIATYGMSPYPGIDLSQVYELLEKDYRMERPEGCPEKVYELMRACWQWNPSDRPSFAEIHQAFETMFQESSISDEVEKELGK
Question: Which results are given for B2?
Answer: catalytic activity [4]: abrogated the catalytic activity; τS1 ([6]; N4posG321V, 16 pores, single S1 dwell events): 1005.56 ms; τS1 (ms), 16 pores ([6]; N4posG321V, individual S1 dwell times, 16 pores): 214.2 ms

B3: N4posAbl: Abl kinase domain with positively charged peptide tail KRKKSGG at its N-terminus (protein)
chain: SPNYDKWEMERTDITMKHKLGGGQYGEVYEGVWKKYSLTVAVKTLKEDTMEVEEFLKEAAVMKEIKHPNLVQLLGVCTREPPFYIITEFMTYGNLLDYLRECNRQEVNAVVLLYMATQISSAMEYLEKKNFIHRDLAARNCLVGENHLVKVADFGLSRLMTGDTYTAHAGAKFPIKWTAPESLAYNKFSIKSDVWAFGVLLWEIATYGMSPYPGIDLSQVYELLEKDYRMERPEGCPEKVYELMRACWQWNPSDRPSFAEIHQAFETMFQESSISDEVEKELGK
Question: What does the source list for B3?
Answer: Vmax [4]: 13.3 ± 1.1 µM/min; kcat [4]: 7.395 ± 0.585 s⁻¹; catalytic activity [4]: no influence on the catalytic activity; τS1 ([6]; N4posAbl, pore #1, single S1 dwell events): 443.75 ms; τS1 ([6]; N4posAbl, pore #3, single S1 dwell events): 1114.75 ms; τS2 ([6]; N4posAbl, pore #3, single S2 dwell events): 3255.5 ms

Question: With KKGEAIYAAPFA (Abl substrate peptide Abltide) [kinase substrate peptide Abltide] as the molecule, how does the Kd [7] read?
Answer: 69.9 ± 13 µM

Question: What about the Kd [8] of the same molecule?
Answer: 257 ± 55.9 µM
